From article PMC4122979, “The N-terminal portion of autoinhibitory element modulates human endothelial nitric-oxide synthase activity through coordinated controls of phosphorylation at Thr^495 and Ser^1177” (Bioscience Reports, 2014)

Target: CaM (calmodulin) (UniProt P0DP23)
Experiment: CaM mobility shift on non-denaturing PAGE
Conditions: reference: unmodified T495 peptide; sites T495

eNOS (endothelial nitric-oxide synthase; heNOS) CaM-binding domain (CBD), 491-510 (from UniProt P29474) pT495 peptide
binding against the reference: weaker
